Test results from US20250355001A1, “METHOD FOR DETECTING A TAU PROTEIN FRAGMENT IN A SAMPLE” (GTINVENT LIMITED, priority 2022, published 2025).

B1: S1D12: sheep-derived anti-tau core clone; scFv SEQ ID NO: 32, VH 443, VL 444 (protein)
scFv: QVQLQESGPSLVKPSQTLSLTCTVSGFSLNNNAVGWVRQAPGKVPESLVGCSSDGTCYYNSALKSRLDITRDTSKNQISLSLSSVTTDDAAVYYCTRGHYSIYGYDYLGTIDYWGPGLLVTVSSEGKSSGASGESKVDDQAVLTQPSSVSGSLGQRVSITCSGSSSNVGGGNSVGWYQHLPGSGLKTIIYDTNSRPSGVPDRFSGSRSGNTATLTINSLQAEDEGDYYCVTGDSTTHDDLVGSGTRLTVLG
modifications: S1D12 amino acid sequence
B2: S1G2: sheep-derived anti-tau core clone; scFv SEQ ID NO: 81, VH 455, VL 456 (protein)
scFv: QVQLQESGPSLVKPSQTLSLTCTVSGFSLTSNSVGWVRQAPGKAPEWVAGIDTDGEEGYNPALNSRLSITRDTSKSQVSLSLSSVTSEDTAVYYCGRSYRADGLAYGYVQAIDYWGPGLLVTVSSEGKSSGASGESKVDDQAVVTQPSSVSGSLGQRVSITCSGSFIGISSVGWFQQLPGSGLRTIIVASDGRPSGVPDRFSMSKSGNTATLTISSLQAEDEADYFCGSSDRTPYTGVFGSGTRLTVLG
modifications: S1G2 amino acid sequence
B3: CE2: anti-tau core clone, Table 10; SEQ ID NO: 366 (protein)
scFv: QVQLQESGPSLVKPSQTLSLTCTVSGFSLTNYPVGWVRQAPGKALEWIGNIENDGSANYASALKSRLSITRDTSKNQVSLSLSSATTEDTAVYYCGREFGGSDGYTYFVDIDYWGPGLLVTVSSEGKSSGASGESKVDDQAVLTQPSSVSKSLGQSVSITCSGSSSNVGYGNYVSWFQQVPGSAPKILIYGATSRASGVPDRFSGSRSGNTATLTITSLQAEDEADYYCASYDGSSSGVFGSGTRLTVLG
modifications: CE2/E1B8 amino acid sequence

Key:
[1] = tested on: hT40, dGA, dGAE and truncated tau fragments; experiment: Binding ELISA / epitope mapping of anti-tau scAbs with truncated tau proteins and 13mer peptides; design: species or system human; conditions: for Tau proteins/fragments with positive scAb reactivity: binding ELISA; for binding region on hT40: amino acid residues of hT40; for Binding region hT40: second Table 26, own antibodies
How it was run: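 Serially double-diluted scAbs were applied to 2% MPBS-blocked wells carrying either 1 μg/ml full-length or truncated tau, or biotinylated 13mer peptides (1 μg/ml) captured on 5 μg/ml streptavidin. Absorbance after HRP anti-human C kappa secondary gave the binding signal.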

aggregated dGAE = aggregated dGAE (Homo sapiens, UniProt P10636); experiment: Capture ELISA ranking mAbs for capture of dGAE aggregates; assay type: binding; conditions: capture mAb 1 μg/ml; 800 nM aggregated dGAE
Chain of aggregated dGAE (P10636 614-708): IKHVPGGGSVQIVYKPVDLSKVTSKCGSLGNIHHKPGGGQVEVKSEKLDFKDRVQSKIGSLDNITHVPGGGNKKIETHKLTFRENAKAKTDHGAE
Description: The aggregation cascade of natively unfolded tau into insoluble filaments is a defining pathological feature of AD. Therefore, it is logical to target aggregated tau filaments for both therapeutic and diagnostic purposes. The following experiment was performed to assess the ability of our dGA mAb panel to bind aggregated dGAE using a capture ELISA method. Aggregates were prepared by incubating 100 μM dGAE and 10 mM dTT for 24 h at 37° C. with shaking at 700 RPM. The following day, dGAE aggregates were centrifuged at 17,000×g for 20 min and the supernatant was removed. The remaining pellet was washed with 10 mM phosphate buffer and centrifuged as above. Washing was repeated a further two times to remove any remaining dGAE monomer. The dGAE pellet was resuspended in 100 μl of 10 mM phosphate buffer. (Using a separate capture ELISA based quantification, we have worked out the efficiency of our dGAE aggregation as 80%)
Following washing, 800 nM aggregated dGAE was added to the designated wells, double diluted across the plate and incubated for 1 h at RT. The plate was washed again and 1 μg/ml S1G2 scAb was added as detection antibody and incubated for 1 h at RT. To the row where S1G2 mAb was used for capture, […] s1D12 scAb was added as […] instead of S1G2. The assay was developed using HRP labelled HuCK as described previously.

dGAE aggregates = dGAE aggregates (Homo sapiens, UniProt P10636); experiment: Epitope occlusion assay: dGAE aggregation with/without LMTM, 423 mAb capture ELISA; assay type: biochemical; conditions: total and supernatant samples; 423 mAb capture
Chain of dGAE aggregates (P10636 614-708): as above
Description: During dGAE aggregation in vitro, scAb binding regions on dGA/dGAE are ‘hidden’ or ‘occluded’ which leads to a loss of immunoreactivity in aggregation samples. Here we have shown the occlusion of binding regions in aggregated dGAE samples and the recovery of immunoreactivity in the presence of LMTM, a tau-aggregation inhibitor. For preparing the aggregates, 10 μl 10 mM DTT was added to 1000 μl 100 μM dGAE and agitated with/without LMTM (1:5 ratio) at 700 rpm for 24 h at 37° C. Following overnight agitation, one third of each sample was kept aside as ‘total’ and the rest was spun down at 16000×g for 30 min and separated into ‘supernatant’ and ‘pellet’. The pellet was then resuspended in half the original volume for further experiments. […] Doubling dilutions of dGAE aggregate ‘total’, ‘supernatant’ and ‘pellet’ samples at 10 μg/ml starting concentration were added to designated wells in doubling dilutions in 1×PBS. dGAE monomer (non-aggregated) was included as assay control. All double dilutions were done in final volumes of 100 μl. This was left to incubate on lab bench for 1 h followed by the addition of test scAbs at 10 μg/ml. Anti-HuCk HRP labelled secondary antibody was added as described previously and ELISA data generated is represented using the graph below.

[2] = tested on: 13 aa tau peptides of hT40; experiment: Alanine scanning mutagenesis (ASM) peptide ELISA; assay type: binding, human; conditions: alanine substituted peptides; numbering SEQ ID NO: 1
[3] = Table 16, NS, S and M clones, incl. 13mer peptides
[4] = Table 26 summary, top scAbs, residues of hT40
[5] = residue numbers of SEQ ID NO: 1 (hT40), CDR Tables 1-11
[6] = Table 15, residue numbers of hT40

| Molecule | Tau proteins/fragments with positive scAb reactivity ([1]; Table 16, NS, S and M clones) | Shortest region bound on hT40 [1, 3] | Epitope [1, 4] | binding region on hT40 [1] | Epitope [1, 5] | Binding region hT40 [1] | ability to capture dGAE aggregates (aggregated dGAE) | immunoreactivity to dGAE aggregation samples prepared in the presence of LMTM (dGAE aggregates) | critical binding residues [2] | Detection scAb (Epitope) ([1]; Table 28 (LoD table), residues of hT40) | cross-reactivity using hT40, dGA and dGAE antigens ([1]; ELISA, 'E' group scAbs) | Tau proteins/fragments with positive scAb reactivity [1, 6] | Shortest region bound on hT40 [1, 6] | Tau proteins/fragments with positive scAb reactivity ([1]; Table 17, 'C' group scAbs) | Shortest region bound on hT40 ([1]; Table 17, 'C' group scAbs, incl. 13mer peptides) | Epitope ([1]; Table 26 summary, top scAbs, residues of hT40, listed as E1B8) | binding region on hT40 ([1]; listed as E1B8 scAb) | hT40 binding region ([1]; second Table 25, mAb format) |
| --- | --- | --- | --- | --- | --- | --- | --- | --- | --- | --- | --- | --- | --- | --- | --- | --- | --- | --- |
| B1 | hT40, 297-390 (dGA), 297-391 (dGAE), 186-350, 266-359, 337-368 | 337-355 | 337-349 | 337-355 | 337-355 | (Binding region hT40 337-355) | most efficient at capturing aggregated dGAE | increase in immunoreactivity | 343 (K), 346 (F) and/or 349 (R) |  |  |  |  |  |  |  |  |  |
| B2 | hT40, 297-390 (dGA), 297-391 (dGAE), 369-390, 369-391 | 367-379 | 367-379 | 367-379 |  | (Binding region hT40 367-379) | most efficient at capturing aggregated dGAE |  |  | S1G2 (367-379) |  |  |  |  |  |  |  |  |
| B3 |  |  | 319-331 |  | 319-331 |  |  | increase in immunoreactivity | 323 (G), 324 (S), 325 (L), 326 (G), 327 (N) and/or 328 (I) |  | cross-reacts with dGA | 297-390 (dGA), 297-391 (dGAE), 313-336 | 313-336 | hT40, 266-359 (R1-3) | 319-331 | 316-336 | 313-336 | 319-331 |
